Test results: patent US20240368285A1 (HEFEI TG IMMUNOPHARMA, published 2024)

T1: MICA on human tumor cells (A-375, A549, HCT-15, MDA-MB-231) (human, UniProt Q29983 24-383)
T1 construct: whole, on cells
T1 sequence (looked up): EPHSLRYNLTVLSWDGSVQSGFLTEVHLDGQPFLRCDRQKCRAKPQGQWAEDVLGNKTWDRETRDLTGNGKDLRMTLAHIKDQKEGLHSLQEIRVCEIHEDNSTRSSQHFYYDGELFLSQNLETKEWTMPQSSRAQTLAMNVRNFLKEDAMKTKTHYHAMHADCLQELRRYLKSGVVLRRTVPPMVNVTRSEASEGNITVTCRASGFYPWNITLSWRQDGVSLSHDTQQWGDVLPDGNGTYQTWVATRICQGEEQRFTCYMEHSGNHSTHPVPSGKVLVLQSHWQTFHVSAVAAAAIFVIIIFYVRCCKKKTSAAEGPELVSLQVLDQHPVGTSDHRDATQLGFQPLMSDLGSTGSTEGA


Legend:
[1] = target: T1, MICA on human tumor cells (A-375, A549, …); test: flow cytometry on A-549 cells, Alexa-647 goat anti-human secondary, % binding ratio
Description: (§1) (2) Tumor cells were diluted to a density of 2×10⁶/mL with PBS and added into a 1.5 ml EP tube in a volume of 100 l/tube. 10 l/tube of goat serum was added into the EP tube; and blocking was conducted at 4° C. for 30 min. […] The tube was incubated at 4° C. for 30 min. 1 mL of PBS was added into the EP tube, and centrifugation was conducted 4° C. at a rate of 3,500 rpm for 5 min. The supernatant was removed. Then, the EP tube was washed once with the PBS, and the supernatant was removed after centrifugation. The cells were resuspended with PBS in a volume of 100 l/tube. An Alexa-647 labeled goat anti-human secondary antibody (purchased from Jackson lab) was added into the tube in a volume of 1 l/tube, and the tube was incubated in the dark at 4° C. for 30 min. The tube was washed twice with PBS, and the supernatant was removed after centrifugation. The cells were resuspended with the PBS in a volume of 200 l/tube, and detection was conducted by a flow cytometer. The results are as shown in FIG. 17A and FIG. 17B, FIG. 18A and FIG. 18B, FIG. 19A and FIG. 19B, and FIG. 20A and FIG. 20B.

[2] = target: T1, MICA on human tumor cells (A-375, A549, …); test: flow cytometry on HCT-15 cells, Alexa-647 goat anti-human secondary, % binding ratio
Description: as §1

[3] = target: T1, MICA on human tumor cells (A-375, A549, …); test: flow cytometry on A-375 cells, Alexa-647 goat anti-human secondary, % binding ratio
Description: as §1

[4] = target: T2, MICA008α3-Fc (human); test: ELISA on coated MICA*008 α3-Fc (1 µg/ml), HRP anti-human Fab secondary, OD450
T2 construct: also called MICA*008-Fc; domain α3 of MICA-008 Fc fusion protein

[5] = target: T3, MICA004α3-Fc (human); test: ELISA on coated MICA*004 α3-Fc (1 µg/ml), HRP anti-human Fab secondary, OD450
T3 construct: also called MICA*004-Fc; domain α3 of MICA-004 Fc fusion protein

[6] = target: T4, MICA002α3-Fc (human); test: ELISA on coated MICA*002 α3-Fc (1 µg/ml), HRP anti-human Fab secondary, OD450
T4 construct: Produced in the Applicant's laboratory; also called MICA*002-Fc; domain α3 of MICA-002 Fc fusion protein

[7] = target: T1, MICA on human tumor cells (A-375, A549, …); test: flow cytometry on MDA-MB-231 cells, Alexa-647 goat anti-human secondary, % binding ratio
Description: as §1

[8] = target: T1, MICA on human tumor cells (A-375, A549, …); test: flow cytometry competition on HCT-15 cells; competitor: Biotin-h5A1002, detected with Alexa-647 streptavidin; % binding ratio of Biotin-h5A1002
Description: HCT-15 cells were diluted to a density of 2×10⁶/mL with PBS and added into a 1.5 ml EP tube in a volume of 100 l/tube. 10 l/tube of goat serum was added into the EP tube, and blocking was conducted at 4° C. for 30 min. […] The tube was incubated at 4° C. for 30 min. A biotin-labeled affinity maturation antibody Biotin-h5A1002 (having a heavy chain sequence as set forth in SEQ ID NO: 13 and a light chain sequence as set forth in SEQ ID NO: 14) was added. The tube was incubated at 4° C. for 30 min. 1 mL of PBS was added into the EP tube, and centrifugation was conducted 4° C. at a rate of 3,500 rpm for 5 min. The supernatant was removed. The EP tube was washed once with the PBS, and the supernatant was removed after centrifugation. The cells were resuspended with PBS in a volume of 100 l/tube. An Alexa-647 labeled Streptavidin secondary antibody (purchased from Biolegend) was added into the tube in a volume of 1 l/tube, and the tube was incubated in the dark at 4° C. for 30 min. The tube was washed twice with PBS, and the supernatant was removed after centrifugation. The cells were resuspended with the PBS in a volume of 200 μl/tube, and detection was conducted by a flow cytometer.

[9] = target: T5, MICB001α3-Fc; test: ELISA on coated MICB*001 α3-Fc (1 µg/ml), HRP anti-human Fab secondary, OD450
T5 construct: also called MICB*001-Fc; domain α3 of MICB-001 Fc fusion protein

[10] = target: T6, MICA005α3-Fc (human); test: ELISA on coated MICA*005 α3-Fc (1 µg/ml), HRP anti-human Fab secondary, OD450
T6 construct: also called MICA*005-Fc; domain α3 of MICA-005 Fc fusion protein

[11] = target: T7, MICB005α3-Fc; test: ELISA on coated MICB*005 α3-Fc (1 µg/ml), HRP anti-human Fab secondary, OD450
T7 construct: also called MICB*005-Fc; domain α3 of MICB-005 Fc fusion protein
T7 sequence (chain, as listed by the source limits assumed): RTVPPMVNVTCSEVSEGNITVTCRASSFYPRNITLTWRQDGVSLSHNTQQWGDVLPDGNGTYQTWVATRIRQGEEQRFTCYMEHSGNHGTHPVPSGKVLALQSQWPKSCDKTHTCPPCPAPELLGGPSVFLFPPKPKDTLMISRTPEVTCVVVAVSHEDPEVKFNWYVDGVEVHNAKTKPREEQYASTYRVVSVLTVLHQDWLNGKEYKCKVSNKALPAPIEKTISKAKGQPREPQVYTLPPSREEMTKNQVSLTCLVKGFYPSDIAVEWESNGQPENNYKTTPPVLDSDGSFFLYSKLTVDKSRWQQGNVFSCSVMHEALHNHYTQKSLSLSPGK

T5 sequence (chain, as listed by the source limits assumed): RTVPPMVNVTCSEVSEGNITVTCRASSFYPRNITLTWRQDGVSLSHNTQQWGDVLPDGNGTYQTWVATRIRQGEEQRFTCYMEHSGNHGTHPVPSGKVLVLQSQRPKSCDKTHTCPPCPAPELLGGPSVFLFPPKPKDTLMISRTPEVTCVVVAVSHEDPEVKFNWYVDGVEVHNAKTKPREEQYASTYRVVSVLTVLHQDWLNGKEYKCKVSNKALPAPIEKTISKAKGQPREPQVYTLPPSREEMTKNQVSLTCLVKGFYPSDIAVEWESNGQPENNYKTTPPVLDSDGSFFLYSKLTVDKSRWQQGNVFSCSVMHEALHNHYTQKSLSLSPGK
T4 sequence (chain, as listed by the source limits assumed): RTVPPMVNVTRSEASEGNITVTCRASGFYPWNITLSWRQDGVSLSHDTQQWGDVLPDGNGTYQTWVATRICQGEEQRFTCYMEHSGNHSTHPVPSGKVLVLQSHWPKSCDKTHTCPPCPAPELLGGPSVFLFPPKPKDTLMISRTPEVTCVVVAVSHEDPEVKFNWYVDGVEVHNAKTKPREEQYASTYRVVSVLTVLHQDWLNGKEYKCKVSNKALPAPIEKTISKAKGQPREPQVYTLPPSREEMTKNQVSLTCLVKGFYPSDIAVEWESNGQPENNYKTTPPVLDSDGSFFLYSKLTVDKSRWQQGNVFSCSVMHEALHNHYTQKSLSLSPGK
T2 sequence (chain, as listed by the source limits assumed): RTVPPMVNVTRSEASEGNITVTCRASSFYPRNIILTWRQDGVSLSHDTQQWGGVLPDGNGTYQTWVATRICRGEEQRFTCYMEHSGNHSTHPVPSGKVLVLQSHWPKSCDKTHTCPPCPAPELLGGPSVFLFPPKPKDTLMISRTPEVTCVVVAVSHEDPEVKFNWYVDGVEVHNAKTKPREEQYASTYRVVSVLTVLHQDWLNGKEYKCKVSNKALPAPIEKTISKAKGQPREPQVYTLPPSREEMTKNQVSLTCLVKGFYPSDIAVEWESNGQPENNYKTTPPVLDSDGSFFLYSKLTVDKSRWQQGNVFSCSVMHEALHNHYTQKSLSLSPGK
T6 sequence (chain, as listed by the source limits assumed): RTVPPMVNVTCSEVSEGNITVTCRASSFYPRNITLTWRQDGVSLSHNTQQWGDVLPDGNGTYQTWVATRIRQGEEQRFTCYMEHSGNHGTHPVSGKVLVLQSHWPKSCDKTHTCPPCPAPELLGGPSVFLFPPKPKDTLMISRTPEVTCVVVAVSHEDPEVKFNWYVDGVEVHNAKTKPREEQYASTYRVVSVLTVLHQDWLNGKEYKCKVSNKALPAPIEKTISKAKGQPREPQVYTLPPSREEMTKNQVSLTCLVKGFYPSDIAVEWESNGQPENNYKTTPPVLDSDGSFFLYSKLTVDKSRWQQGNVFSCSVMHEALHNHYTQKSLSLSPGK
T3 sequence (chain, as listed by the source limits assumed): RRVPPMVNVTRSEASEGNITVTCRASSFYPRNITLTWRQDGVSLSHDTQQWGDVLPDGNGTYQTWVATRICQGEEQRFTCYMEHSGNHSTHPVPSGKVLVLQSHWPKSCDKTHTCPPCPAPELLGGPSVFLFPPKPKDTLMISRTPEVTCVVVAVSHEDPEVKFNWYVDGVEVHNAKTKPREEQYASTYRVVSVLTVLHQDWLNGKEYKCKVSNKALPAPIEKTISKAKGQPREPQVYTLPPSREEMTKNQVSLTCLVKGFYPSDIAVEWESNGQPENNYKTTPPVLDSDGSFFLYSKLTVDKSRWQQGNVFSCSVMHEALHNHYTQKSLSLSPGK

EC50 (read off the curve) [1] [µg/mL] | EC50 (read off the curve) [2] [µg/mL] | EC50 (read off the curve) [3] [µg/mL] | EC50 (read off the curve) [4] [µg/mL] | EC50 (read off the curve) [5] [µg/mL] | EC50 (read off the curve) [6] [µg/mL] | EC50 (read off the curve) [7] [µg/mL] | IC50 (read off the curve) [8] [µg/mL] | EC50 (read off the curve) [9] [µg/mL] | EC50 (read off the curve) [10] [µg/mL] | EC50 (read off the curve) [11] [µg/mL] | Binder
~0.4 | ~0.1 | ~0.3 | ~0.07 | ~0.04 | ~0.05 | ~0.3 | ~5 | ~0.03 | ~0.09 | ~0.04 | antibody 1D5V11 (Genentech) (antibody, human IgG1, kappa, V domains shown, also called homogeneous antibody 1D5V11) VH: EIQLVQSGAEVKKPGASVKVSCKASGYAFTSQNIYWVRQAPGQGLEWIGYIEPYNVVPMYNPKFKGRATLTVDKSTSTAYLELSSLRSEDTAVYYCARSGSSNFDYWGQGTLVTVSS VL: DIQLTQSPSSLSASVGDRVTITCSASSSISSHYLHWYQQKPGKSPKLLIYRTSNLASGVPSRFSGSGSGTDYTLTISSLQPEDFATYYCQQGSSLPLTFGQGTKVEIKR
~0.7 | ~0.3 | ~0.7 | ~0.1 | ~0.04 | ~0.07 | ~0.7 | ~4 | ~0.05 | ~0.2 | ~0.04 | antibody CLN-619 (Cullinan) (antibody, human IgG1, kappa, V domains shown, hIgG1 subtype) VH: QVQLVESGGGLVKPGGSLRLSCAASGFTFSNYAMSWIRQAPGKGLEWVSYISPGGDYIYYADSVKGRFTISRDNAKNSLYLQMNSLRAEDTAVYYCTTDRRHYGSYAMDYWGQGTLVTVSS VL: DIVMTQSPLSLPVTPGEPASISCRSSKSLLHSNLNTYLYWFLQKPGQSPQILIYRMSNLASGVPDRFSGSGSGTAFTLKISRVEAEDVGVYYCMQHLEYPFTFGPGTKLEIKR
